Measured values from PMC8191777.
Numbering of substitutions follows the chain as printed.

Tests used:
[1] = molecular target: T1, TbTRF-lMyb280-382 (Trypanosoma brucei) (UniProt Q4VHG6); test: EMSA
T1 sequence: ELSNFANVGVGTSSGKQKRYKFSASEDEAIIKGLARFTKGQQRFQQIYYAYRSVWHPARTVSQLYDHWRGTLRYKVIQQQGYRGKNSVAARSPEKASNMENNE

[2] = molecular target: T2, TbTRF-lMyb280-382 R298E R298E (Trypanosoma brucei) (UniProt Q4VHG6); test: EMSA
T2 sequence: T1 sequence with R19E

CCCUAACCCUAACCCUAACCCUAACCCUAACCCUAACCCUAACCCUAACCCUAACCCUAACCCUAACCCUAA [ss(CCCUAA)12]
Kd [1]: 17200 nM
Kd [2]: 36 nM

UUAGGGUUAGGGUUAGGGUUAGGGUUAGGGUUAGGGUUAGGGUUAGGGUUAGGGUUAGGGUUAGGGUUAGGG [ss(UUAGGG)12]
Kd [1]: 268 nM
Kd [2]: 5 nM
